Reference: patent US20160200813A1
One block for each binder: values may come before it.

Experiments:
[1] = molecular target: Mouse LRP-8 expressed on HEK293 cells (mouse) (UniProt Q924X6); assay: fit of the FACS titration of FIG. 12A on mLRP8-transfected HEK293 cells; the column head prints EC50 only, nM is from legend paragraph 78 and the axis of FIG. 12A
[2] = molecular target: Mouse LRP-8 expressed on HEK293 cells (mouse) (UniProt Q924X6); assay: cell-based binding assay, mLRP8
[3] = molecular target: Mouse LRP-8 expressed on HEK293 cells (mouse) (UniProt Q924X6); assay: cell-based MSD-ECL binding on cells overexpressing mouse LRP-8 variant 1 (mLRP8 assay); curve without plateau up to 10000 ng/ml
[4] = molecular target: Mouse LRP-8 expressed on HEK293 cells (mouse) (UniProt Q924X6); assay: cell-based binding on MOUSE LRP8-HEK293, supernatant 1:5
[5] = molecular target: Mouse LRP-8 expressed on HEK293 cells (mouse) (UniProt Q924X6); assay: cell-based binding on MOUSE LRP8-HEK293, supernatant 1:125
[6] = molecular target: Mouse LRP-8 expressed on HEK293 cells (mouse) (UniProt Q924X6); assay: cell-based binding on MOUSE LRP8-HEK293, supernatant 1:25
[7] = molecular target: Mouse LRP-8 expressed on HEK293 cells (mouse) (UniProt Q924X6); assay: FACS, mouse LRP8 cells
[8] = molecular target: Mouse LRP-8 expressed on HEK293 cells (mouse) (UniProt Q924X6); assay: cell-based ECL-MSD, 10 ug/ml Ab, mouse-LRP-8-HEK293
[9] = molecular target: Mouse LRP-8 expressed on HEK293 cells (mouse) (UniProt Q924X6); assay: cell-based MSD binding assay on 293H-mLRP8 cells; curve label LRP8-11H1
[10] = molecular target: Mouse LRP-8 expressed on HEK293 cells (mouse) (UniProt Q924X6); assay: mLRP8 cell binding
[11] = molecular target: Mouse LRP-8 expressed on HEK293 cells (mouse) (UniProt Q924X6); assay: cell-based MSD binding assay on 293H-mLRP8 cells; curve label 11H1-17
[12] = molecular target: Mouse LRP-8 expressed on HEK293 cells (mouse) (UniProt Q924X6); assay: cell-based MSD binding assay on 293H-mLRP8 cells; curve label 11H1-19
[13] = molecular target: Mouse LRP-8 expressed on HEK293 cells (mouse) (UniProt Q924X6); assay: cell-based MSD binding assay on 293H-mLRP8 cells; curve label 11H1-15
[14] = molecular target: Mouse LRP-8 expressed on HEK293 cells (mouse) (UniProt Q924X6); assay: cell-based MSD binding assay on 293H-mLRP8 cells; curve label 11H1-20
[15] = molecular target: Mouse LRP-8 expressed on HEK293 cells (mouse) (UniProt Q924X6); assay: cell-based MSD binding assay on 293H-mLRP8 cells; curve label 11H1-18
[16] = molecular target: Mouse LRP-8 expressed on HEK293 cells (mouse) (UniProt Q924X6); assay: cell-based MSD binding assay on 293H-mLRP8 cells; curve label 11H1-16, no plateau up to about 600 nM
[17] = molecular target: Mouse LRP-8 expressed on HEK293 cells (mouse) (UniProt Q924X6); assay: cell-based MSD binding assay on 293H-mLRP8 cells; curve label 11H1-21, no plateau up to about 600 nM

B1: anti-LRP-8 BGK-2C8.8C antibody (antibody, V domains shown)
VH: EVQLVESGGGLVQPGRSLKLSCAASGFTVSDYYMAWVRQAPKKGLEWVASISYEGSSTYYGDSVKGRFTISRDNAKSILYLQMNSLRSEDTATYYCARPLRYYGYNYRFAYWGQGTLVTVSS
VL: DIQMSQSPPVLSASVGDRVTLSCKASQNIHKNLDWYQQKHGEAPKLLIYYTDNLQTGIPSRFSGSGSGTDYTLTISSLQPEDVATYYCYQYNSGPTFGAGTKLELQ
EC50 [1]: 2.61 nM
EC50 [2]: 22 nM
EC50 [3]: 4.4 µg/mL

B8: LRP8-ML199.11H1.5B2 VH1/VL1A.17 (antibody, V domains shown)
VH: EVQLVESGGGLVKPGGSLRLSCAASRFTFSNYGMSWVRQAPGKGLEWVSTISSGGRYTYYPDHVKGRFTISRDNAKNSLYLQMNSLRAEDTAVYYCARDYLYAMDYWGQGTTVTVSS
VL: DVVMTQSPLSLPVTPGEPASISCRSSQSLVYSNLNTYLHWYLQKPGQSPQVLMYKVSNRFSGVPDRFSGSGSGTDFTLKISRVEAEDVGVYFCSQSTHVPLTFGQGTKLEIK
EC50 [11]: 0.7 nM

B9: LRP8-ML199.11H1.5B2 VH1/VL1A.19 (antibody, V domains shown)
VH: EVQLVESGGGLVKPGGSLRLSCAASRFTFSNYGMSWVRQAPGKGLEWVSTISSGGRYTYYPDHVKGRFTISRDNAKNSLYLQMNSLRAEDTAVYYCARDYLYAMDYWGQGTTVTVSS
VL: DVVMTQSPLSLPVTPGEPASISCRSSQSLVYSRGNTYLHWYLQKPGQSPQVLMYKVSNRFSGVPDRFSGSGSGTDFTLKISRVEAEDVGVYFCSQSTHVPLTFGQGTKLEIK
EC50 [12]: 24 nM

B10: anti-LRP-8 ML199-11H1.5B2 murine antibody (muFc) (antibody, V domains shown)
VH: EVQLVESGGDLVKPGGSLKLSCAASRFTFSNYGMSWVRQTPDKRLEWVATISSGGRYTYYPDSVKGRFTISRDNAKNTLYLQMSSLRSEDTAMYYCARDYLYAMDYWGQGTSVTVSS
VL: DVVMTQTPLSLPVSLGDQASISCRSSQSLVYSNGNTYLHWYLQKPGQSPKVLMYKVSNRFSGVSDRFSGSGSGTDFTLKISRVEAEDLGVYFCSQSTHVPLTFGAGTKLELK
fold over mIgG control [8]: 23.1 fold
EC50 [1]: 8.36 nM

B11: LRP8-ML199.11H1.5B2 VH1/VL1A.15 (antibody, V domains shown)
VH: EVQLVESGGGLVKPGGSLRLSCAASRFTFSNYGMSWVRQAPGKGLEWVSTISSGGRYTYYPDHVKGRFTISRDNAKNSLYLQMNSLRAEDTAVYYCARDYLYAMDYWGQGTTVTVSS
VL: DVVMTQSPLSLPVTPGEPASISCRSSQSLVYSNENTYLHWYLQKPGQSPQVLMYKVSNRFSGVPDRFSGSGSGTDFTLKISRVEAEDVGVYFCSQSTHVPLTFGQGTKLEIK
EC50 [13]: 3.2 nM

B12: LRP8-ML199.11H1.5B2 VH1/VL1A.20 (antibody, V domains shown)
VH: EVQLVESGGGLVKPGGSLRLSCAASRFTFSNYGMSWVRQAPGKGLEWVSTISSGGRYTYYPDHVKGRFTISRDNAKNSLYLQMNSLRAEDTAVYYCARDYLYAMDYWGQGTTVTVSS
VL: DVVMTQSPLSLPVTPGEPASISCRSSQSLVYSWGNTYLHWYLQKPGQSPQVLMYKVSNRFSGVPDRFSGSGSGTDFTLKISRVEAEDVGVYFCSQSTHVPLTFGQGTKLEIK
EC50 [14]: 21 nM

B13: LRP8-ML199.11H1.5B2 VH1/VL1A.18 (antibody, V domains shown)
VH: EVQLVESGGGLVKPGGSLRLSCAASRFTFSNYGMSWVRQAPGKGLEWVSTISSGGRYTYYPDHVKGRFTISRDNAKNSLYLQMNSLRAEDTAVYYCARDYLYAMDYWGQGTTVTVSS
VL: DVVMTQSPLSLPVTPGEPASISCRSSQSLVYSNKNTYLHWYLQKPGQSPQVLMYKVSNRFSGVPDRFSGSGSGTDFTLKISRVEAEDVGVYFCSQSTHVPLTFGQGTKLEIK
EC50 [15]: 0.8 nM

B14: LRP8-ML199.11H1.5B2 VH1/VL1A.16 (antibody, V domains shown)
VH: EVQLVESGGGLVKPGGSLRLSCAASRFTFSNYGMSWVRQAPGKGLEWVSTISSGGRYTYYPDHVKGRFTISRDNAKNSLYLQMNSLRAEDTAVYYCARDYLYAMDYWGQGTTVTVSS
VL: DVVMTQSPLSLPVTPGEPASISCRSSQSLVYSTGNTYLHWYLQKPGQSPQVLMYKVSNRFSGVPDRFSGSGSGTDFTLKISRVEAEDVGVYFCSQSTHVPLTFGQGTKLEIK
EC50 [16]: 625 nM

B15: LRP8-ML199.11H1.5B2 VH1/VL1A.21 (antibody, V domains shown)
VH: EVQLVESGGGLVKPGGSLRLSCAASRFTFSNYGMSWVRQAPGKGLEWVSTISSGGRYTYYPDHVKGRFTISRDNAKNSLYLQMNSLRAEDTAVYYCARDYLYAMDYWGQGTTVTVSS
VL: DVVMTQSPLSLPVTPGEPASISCRSSQSLVYSPGNTYLHWYLQKPGQSPQVLMYKVSNRFSGVPDRFSGSGSGTDFTLKISRVEAEDVGVYFCSQSTHVPLTFGQGTKLEIK
EC50 [17]: 249 nM

Other lines, results leading:

fold over isotype control [4]: 0.72 fold
fold over isotype control [5]: 0.21 fold
fold over isotype control [6]: 0.44 fold
B2: anti-LRP-8 BGK.6E3.F4 [r/m IgG2a/K] (antibody, V domains shown)
VH: EVQLVESGGGLVQPGKSLKLSCAASGFTFSDYNMAWVRQAPKKGLEWVATIMYDGSRTFYRDSVKGRYTFSRDNAKSTLYLQMDSLRSEDTATYYCATGRNWFAYWGQGTLVTVSS
VL: DIIMTQSPSSLAVSAGETVTINCKSSQSLLSSGKQKNYLAWYQQKPGQSPKLLIYLASTRESGVPDRFIGSGSGTDFTLTISSMQAEDLAIYYCQQHYDTPLTFGSGTKLEIK

FACS (ratio +/-) [7]: 21.2
B3: anti-LRP-8 antibody CL-135325 (antibody, V domains shown)
VH: EVQLVQSGGGLVQPGGSLRLSCAASGFTFSIYAMSWVRQAPGKGLEWVSVISCSAGSTYYADSVKGRFTISRDNSKNTLYLQMNSLRAEDTAVYYCARHSVHEEFPFDVWGQGTLVTVSS
VL: DIQMTQSPSSLSASVGDRVTITCRASQSIGSYLNWYQQKPGKAPKLLIYAASSLQSGVPSRFSGSGSGTDFTLTISSLQPEDFATYYCQQSYIPPLTFGGGTKVEIK

FACS (ratio +/-) [7]: 7.3
B4: anti-LRP-8 antibody CL-135359 (antibody, V domains shown)
VH: EVQLVQSGGGLVQPGGSLRLSCAASGFTFSSYAMSWVRQAPGKGLEWVSVISCSGGTTYYADSVKGRFTISRDNSKNTLYLQMNSLRAEDTAVYYCARNGGQFDLWGQGTLVTVSS
VL: DIQMTQSPSSLSASVGDRVTITCRASQGICTYLNWYQQKPGKAPKLLIYAASSLQSGVPSRFSGSGSGTDFTLTISSLQPEDFATYYCQQSYNPPLTFGGGTKVEIK

fold over mIgG control [8]: 19.2 fold
B5: anti-LRP-8 antibody ab58216 (mFc) (antibody, V domains shown)
VH: EVHLQQSGPEVVKPGASVKISCKASGYIISGYFLNWVKQSHGKSLEWVGRINPYSGDTFFNQKFKGKATLTVDKSSNTAHMELRSLTSEDSAVFYCAREDIGRFAYWGQGTLVTVSA
VL: DVLMTQTPLSLPVSLGDQASISCRSSQTIVHSNGNTYLEWYLQKPGQSPKLLIYKVSNRFSGVPDRFSGSGSGTDFTLKISRVEAEDLGVYYCFQGSHAPPTFGGGTKLEIK

fold over mIgG control [8]: 1.2 fold
B6: anti-LRP-8 ML201-2B4.2B1.2H10 murine antibody (muFc) (antibody, V domains shown)
VH: DVKLVASGGGLVKPGGSLKLSCAASGFTLSRYAMSWVRQTPEKRLEWVAYIRNGGDYIYYADTVKGRFTISRDNARNTLYLQMSSLKSEDTAMYYCTREGSYYNFDYWGQGTTLTVSS
VL: DVLMTQTPLSLPVSLGDQASISCRSSQSIVHSNGNTYLEWYLQKPGQSPNLLIFKVSNRFSGVPDRFIGSGSGTDFTLKISRVEAEDLGVYYCFQGSHVPWTFGGGTKLEIK

EC50 [9]: 0.3 nM
EC50 [10]: 13.4 nM
B7: humanized ML199-11H1.5B2VH.1/VL.1a (antibody, V domains shown)
VH: EVQLVESGGGLVKPGGSLRLSCAASRFTFSNYGMSWVRQAPGKGLEWVSTISSGGRYTYYPDSVKGRFTISRDNAKNSLYLQMNSLRAEDTAVYYCARDYLYAMDYWGQGTTVTVSS
VL: DVVMTQSPLSLPVTPGEPASISCRSSQSLVYSNGNTYLHWYLQKPGQSPQVLMYKVSNRFSGVPDRFSGSGSGTDFTLKISRVEAEDVGVYFCSQSTHVPLTFGQGTKLEIK

fold over mIgG control [8]: 21.1 fold
B16: anti-LRP-8 ML201-8F3.3D7 murine antibody (muFc) (antibody, V domains shown)
VH: EVQLVESGGDLVKPGGSLKLSCAASRFTFSNFGMSWVRQTPDKRLEWVATISSGGRYTYYPDSVKGRFTISRDNAKNTLYLQMSSLRSEDTAMYYCARDYLYAMDYWGQGTSVTVSS
VL: DVVMTQTPLSLPVSLGDQASISCRSSQSLVYSNGNTYLHWYLQKPGQSPKVLMYKVSNRFSGVSDRFSGSGSGTDFTLKISRVEAEDLGVYFCSQSTHVPLTFGAGTKLELK
